This assay concerns the target amatuximab, chimerized monoclonal IgG1 antibody targeting mesothelin (unlabelled) (human). The assay can be described thus: ELISA. On the technique in general: An ELISA detects its analyte on a solid surface through an enzyme-linked reagent.

Substance “CA125 tumor-shed antigen, soluble (sCA125), patient-derived (from UniProt Q8WXI7 1-14507) (natural protein)” returned a percent decrease of CD16a binding to amatuximab of 50% and a percent reduction of amatuximab binding to CD32a of 29%.

Values taken from article PMC5989791.
